Reference: US20240270818A1 (PETMEDIX, published 2024)
Substitutions are numbered along the chain they refer to. Names may count otherwise. Like-named read-outs stand apart in the source and are kept apart here.

B1: PetML 119 (canine p75NTR ECD-canine IgGB wt Fc protein fusion) (Fc fusion)
chain: KEACPTGLYTHSGECCKACNLGEGVAQPCGANQTVCEPCLDSVTFSDVVSATEPCKPCTECVGLQSMSAPCVEADDAVCRCAYGYYQDETTGRCEACRVCEAGSGLVFSCQDRQNTVCEECPDGTYSDEANHVDPCLPCTVCEDTERQLRECTRWADAECEEIPGGGGRENGRVPRPPDCPKCPAPEMLGGPSVFIFPPKPKDTLLIARTPEVTCVVVDLDPEDPEVQISWFVDGKQMQTAKTQPREEQFNGTYRVVSVLPIGHQDWLKGKQFTCKVNNKALPSPIERTISKARGQAHQPSVYVLPPSREELSKNTVSLTCLIKDFFPPDIDVEWQSNGQQEPESKYRTTPPQLDEDGSYFLYSKLSVDKSRWQRGDTFICAVMHEALHNHYTQKSLSHSPGK
notes: The end, 422, is my own count; also called WT molecule
B2: Bedinvetmab (antibody, INN chains, looked up, V domains shown)
VH: EVQLVESGGDLVKPGGSLRLSCVASGFTFSSHGMHWVRQSPGKGLQWVAVINSGGSSTYYTDAVKGRFTISRDNAKNTVYLQMNSLRAEDTAMYYCAKESVGGWEQLVGPHFDYWGQGTLVIVSS
VL: QSVLTQPTSVSGSLGQRVTISCSGSTNNIGILGASWYQLFPGKAPKLLVYGNGNRPSGVPDRFSGADSGDSVTLTITGLQAEDEADYYCQSFDTTLGAHVFGGGTHLTVL
B3: PetML 119-S109Y (canine p75NTR ECD S109Y-canine IgGB wt Fc) (Fc fusion)
chain: KEACPTGLYTHSGECCKACNLGEGVAQPCGANQTVCEPCLDSVTFSDVVSATEPCKPCTECVGLQSMSAPCVEADDAVCRCAYGYYQDETTGRCEACRVCEAGSGLVFYCQDRQNTVCEECPDGTYSDEANHVDPCLPCTVCEDTERQLRECTRWADAECEEIPGRGGGGRENGRVPRPPDCPKCPAPEMLGGPSVFIFPPKPKDTLLIARTPEVTCVVVDLDPEDPEVQISWFVDGKQMQTAKTQPREEQFNGTYRVVSVLPIGHQDWLKGKQFTCKVNNKALPSPIERTISKARGQAHQPSVYVLPPSREELSKNTVSLTCLIKDFFPPDIDVEWQSNGQQEPESKYRTTPPQLDEDGSYFLYSKLSVDKSRWQRGDTFICAVMHEALHNHYTQKSLSHSPGK
notes: Signal peptide (first 19 residues) left out as for m1
B4: PetML 119-S109H (canine p75NTR ECD S109H-canine IgGB wt Fc) (Fc fusion)
chain: B3 chain with Y109H
notes: Signal peptide left out as for m1; If the listing holds it too, the entry is 425 residues long
B5: PetML 119-V133R (canine p75NTR ECD V133R-canine IgGB wt Fc) (Fc fusion)
chain: B3 chain with Y109S, V133R
notes: as for B3
B6: PetML 119-D134L (canine p75NTR ECD D134L-canine IgGB wt Fc) (Fc fusion)
chain: B3 chain with Y109S, D134L
notes: as for B3
B7: PetML 119-E75T (canine p75NTR ECD E75T-canine IgGB wt Fc) (Fc fusion)
chain: B3 chain with D75T, Y109S
notes: as for B3

What was measured:
[1] = target: T1, human Nerve Growth Factor (human, UniProt P01138 122-241); experiment: cell-based or functional assay
T1 sequence (P01138 122-241 limits assumed): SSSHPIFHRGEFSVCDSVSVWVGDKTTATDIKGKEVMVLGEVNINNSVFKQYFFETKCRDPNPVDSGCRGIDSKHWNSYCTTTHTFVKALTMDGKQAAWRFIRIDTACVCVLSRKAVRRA

[2] = target: NGF (species not stated at the place) (Homo sapiens (Human), UniProt P01138 122-241); experiment: cell-based or functional assay
rat Nerve Growth Factor = target: T2, rat Nerve Growth Factor (rat, UniProt P25427 122-241, limits assumed); experiment: SPR (Biacore 8K), fusion captured on Protein A chip
T2 construct: Bought recombinant protein; also called rNGF; rat NGF
T2 sequence (P25427 122-241 limits assumed): as the sequence (P01138 122-241 limits assumed) above, with S3T, I6V, R9M, M37T, D60A, D65E, M92T, G94D, V117A, A120G counted along it
Method: (§1) Binding affinity of fusion proteins to human and rat NGF was assessed using Biacore 8K (Cytiva). Briefly, Protein A Sensor Chip (Cytiva) was docked into Biacore 8K, equilibrated for 30′ at RT and then Running Buffer (10 mM HEPES pH7.4 150 mM NaCl 3 mM EDTA and 0.005% Tween20) was applied to the SPR chip surface.
(§2) These were immobilised using 90 see association at 10 uL/min as capturing step, followed by injection of running buffer to remove any unbound product.
(§3) Kinetics were assessed using multi-cycle kinetics with capture step method (30 see association-300 see dissociation) followed by regeneration step (0.1M Glycine pH2.2 contact time 60 see FR 30 uL/min). Kinetics quantification have been performed using Biacore Insight following standard analyses methods.

[3] = target: T1, human Nerve Growth Factor; experiment: SPR (Biacore 8K), fusion captured on Protein A chip, hNGF as analyte, multi-cycle kinetics
Method: as §1, §2, §3

[4] = target: NGF (species not stated at the place) (Homo sapiens (Human)) (UniProt P01138); experiment: cell-based or functional assay
[5] = target: NGF (species not stated at the place) (Homo sapiens (Human)) (UniProt P01138); experiment: cell-based or functional assay; remark: listed apart in the source
[6] = target: T1, human Nerve Growth Factor; experiment: SPR (Biacore 8K), fusion captured on Protein A chip
Method: as §1, §2, §3

Row | Binder | IC50 (nM), inhibition of TF-1 cell proliferation [1] | ICMAX (%), inhibition of TF-1 cell proliferation [1] | Bottom (%), PathHunter TrkA activation assay [2] | IC50 (nM), PathHunter TrkA activation assay [2] | binding result (rat Nerve Growth Factor) | Kd [3] | Bottom (%), PathHunter TrkA activation assay [4] | Top (%), PathHunter TrkA activation assay [4] | TrkA inhibition, PathHunter luminescence [4] | Bottom (%), PathHunter TrkA activation assay [5] | Top (%), PathHunter TrkA activation assay [5] | Top (%), PathHunter TrkA activation assay [2] | fold reduced affinity relative to PetML 119 wt [6]
1 | B1 | 4.46 nM | 73.1% | 9.5% | 8.04 nM | binds | 0.309 nM | – | – | – | – | – | – | –
2 | B2 | – | – | – | – | – | – | 5.35% | 123% | 100% | 2.11% | 93.5% | – | –
3 | B3 | 2.15 nM | 93.5% | 7.79% | 2.15 nM | binds | 0.225 nM | – | – | – | – | – | 87.3% | –
4 | B4 | 0.17 nM | 88.5% | 10.3% | 2.2 nM | binds | 0.267 nM | – | – | – | – | – | 48.3% | –
5 | B5 | 5.06 nM | 80.5% | 14.3% | 2.56 nM | binds | 0.346 nM | – | – | – | – | – | 49.3% | –
6 | B6 | 329 nM | 70.5% | 53.7% | 20.8 nM | – | 6.8 nM | – | – | – | – | – | 82.7% | 20 fold
7 | B7 | 18.2 nM | 72.5% | 44.5% | 82.6 nM | – | 12.4 nM | – | – | – | – | – | 72.6% | 40 fold
